{"source": "paper PMC3768570", "about": "(Brazilian Journal of Microbiology, 2009)", "key": {"[1]": {"tested_on": "Saccharomyces cerevisiae phytase", "assay": "phosphate release, ammonium molybdate, Lineweaver-Burk", "format": "biochemical", "details": "pH 5.0, 37°C, 100 mM sodium acetate; InsP3 prepared with S. cerevisiae phytase"}, "[2]": {"target": "T1, phytase from Aspergillus niger 11T53A9 (Aspergillus niger, UniProt P34752)", "T1 sequence (P34752 24-467)": "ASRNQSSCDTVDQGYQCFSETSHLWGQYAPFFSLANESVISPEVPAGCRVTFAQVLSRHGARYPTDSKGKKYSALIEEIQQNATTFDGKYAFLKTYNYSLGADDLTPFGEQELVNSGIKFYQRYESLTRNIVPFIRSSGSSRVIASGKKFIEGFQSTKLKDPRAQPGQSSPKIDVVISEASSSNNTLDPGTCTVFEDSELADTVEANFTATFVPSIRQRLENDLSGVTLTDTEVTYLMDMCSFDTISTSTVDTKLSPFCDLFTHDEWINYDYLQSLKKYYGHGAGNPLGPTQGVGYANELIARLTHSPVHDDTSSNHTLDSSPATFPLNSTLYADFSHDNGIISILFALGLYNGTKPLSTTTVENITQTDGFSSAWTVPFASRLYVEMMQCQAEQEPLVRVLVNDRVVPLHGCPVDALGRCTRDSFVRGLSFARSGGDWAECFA", "assay": "biochemical"}, "purified protein [3]": {"substrate": "Nc1ncnc2c1ncn2[C@@H]1O[C@H](COP(=O)(O)OP(=O)(O)O)[C@@H](O)[C@H]1O", "assay": "purified protein", "details": "pH 5.0, 37°C, 100 mM sodium acetate"}, "purified protein [4]": {"substrate": "Nc1ncnc2c1ncn2[C@@H]1O[C@H](COP(=O)(O)OP(=O)(O)OP(=O)(O)O)[C@@H](O)[C@H]1O", "assay": "purified protein", "details": "pH 5.0, 37°C, 100 mM sodium acetate"}, "purified protein [5]": {"substrate": "O=P(O)(O)Oc1cccc2ccccc12", "assay": "purified protein", "details": "pH 5.0, 37°C, 100 mM sodium acetate"}, "purified protein [6]": {"substrate": "O=P(O)(O)Oc1ccccc1", "assay": "purified protein", "details": "pH 5.0, 37°C, 100 mM sodium acetate"}, "purified protein [7]": {"substrate": "O=P(O)(O)Oc1ccc2ccccc2c1", "assay": "purified protein", "details": "pH 5.0, 37°C, 100 mM sodium acetate"}, "purified protein [8]": {"substrate": "O=P(O)(O)O[C@H]1O[C@H](CO)[C@@H](O)[C@H](O)[C@H]1O", "assay": "purified protein", "details": "pH 5.0, 37°C, 100 mM sodium acetate"}, "purified protein [9]": {"substrate": "O=P(O)(O)O[C@H]1[C@H](OP(=O)(O)O)[C@@H](OP(=O)(O)O)[C@H](OP(=O)(O)O)[C@@H](OP(=O)(O)O)[C@H]1OP(=O)(O)O", "assay": "purified protein", "details": "pH 5.0, 37°C, 100 mM sodium acetate"}, "purified protein [10]": {"substrate": "O=P(O)(O)OC(CO)CO", "assay": "purified protein", "details": "pH 5.0, 37°C, 100 mM sodium acetate"}, "purified protein [11]": {"substrate": "O=[N+]([O-])c1ccc(OP(=O)(O)O)cc1", "assay": "purified protein", "details": "pH 5.0, 37°C, 100 mM sodium acetate"}, "purified protein [12]": {"substrate": "Nc1ncnc2c1ncn2[C@@H]1O[C@H](COP(=O)(O)O)[C@@H](O)[C@H]1O", "assay": "purified protein", "details": "pH 5.0, 37°C, 100 mM sodium acetate"}}, "data": [{"molecule": "O=P(O)(O)O[C@@H]1[C@H](OP(=O)(O)O)[C@H](O)[C@@H](O)[C@H](O)[C@H]1OP(=O)(O)O", "note": "[D-Ins(1,2,6)P3]", "values": [{"measurement": "Km", "setting": "[1]", "result": "293 ± 12", "unit": "µM"}]}, {"molecule": "F", "note": "[Fluoride]", "values": [{"measurement": "Ki", "setting": "[2]", "result": 158, "unit": "µM"}]}, {"molecule": "phytase from Aspergillus niger 11T53A9 (Aspergillus niger) (protein) ASRNQSSCDTVDQGYQCFSETSHLWGQYAPFFSLANESVISPEVPAGCRVTFAQVLSRHGARYPTDSKGKKYSALIEEIQQNATTFDGKYAFLKTYNYSLGADDLTPFGEQELVNSGIKFYQRYESLTRNIVPFIRSSGSSRVIASGKKFIEGFQSTKLKDPRAQPGQSSPKIDVVISEASSSNNTLDPGTCTVFEDSELADTVEANFTATFVPSIRQRLENDLSGVTLTDTEVTYLMDMCSFDTISTSTVDTKLSPFCDLFTHDEWINYDYLQSLKKYYGHGAGNPLGPTQGVGYANELIARLTHSPVHDDTSSNHTLDSSPATFPLNSTLYADFSHDNGIISILFALGLYNGTKPLSTTTVENITQTDGFSSAWTVPFASRLYVEMMQCQAEQEPLVRVLVNDRVVPLHGCPVDALGRCTRDSFVRGLSFARSGGDWAECFA", "values": [{"measurement": "Km", "setting": "purified protein [3]", "result": "534 ± 7.9", "unit": "µM"}, {"measurement": "kcat", "setting": "purified protein [3]", "result": "12 ± 0.9", "unit": "s⁻¹"}, {"measurement": "kcat/Km", "setting": "purified protein [3]", "result": 22500, "unit": "M⁻¹ s⁻¹"}, {"measurement": "Km", "setting": "purified protein [4]", "result": "587 ± 6.5", "unit": "µM"}, {"measurement": "kcat", "setting": "purified protein [4]", "result": 8, "unit": "s⁻¹"}, {"measurement": "kcat/Km", "setting": "purified protein [4]", "result": 13600, "unit": "M⁻¹ s⁻¹"}, {"measurement": "Km", "setting": "purified protein [5]", "result": "247 ± 6.7", "unit": "µM"}, {"measurement": "kcat", "setting": "purified protein [5]", "result": "23 ± 1.5", "unit": "s⁻¹"}, {"measurement": "kcat/Km", "setting": "purified protein [5]", "result": 93100, "unit": "M⁻¹ s⁻¹"}, {"measurement": "Km", "setting": "purified protein [6]", "result": "177 ± 1.3", "unit": "µM"}, {"measurement": "kcat", "setting": "purified protein [6]", "result": 36, "unit": "s⁻¹"}, {"measurement": "kcat/Km", "setting": "purified protein [6]", "result": 203000, "unit": "M⁻¹ s⁻¹"}, {"measurement": "Km", "setting": "purified protein [7]", "result": "276 ± 7.1", "unit": "µM"}, {"measurement": "kcat", "setting": "purified protein [7]", "result": 22, "unit": "s⁻¹"}, {"measurement": "kcat/Km", "setting": "purified protein [7]", "result": 79700, "unit": "M⁻¹ s⁻¹"}, {"measurement": "Km", "setting": "purified protein [8]", "result": "741 ± 6.4", "unit": "µM"}, {"measurement": "kcat", "setting": "purified protein [8]", "result": "6 ± 0.4", "unit": "s⁻¹"}, {"measurement": "kcat/Km", "setting": "purified protein [8]", "result": 8100, "unit": "M⁻¹ s⁻¹"}, {"measurement": "Km", "setting": "purified protein [9]", "result": "54 ± 1.4", "unit": "µM"}, {"measurement": "kcat", "setting": "purified protein [9]", "result": "190 ± 4.3", "unit": "s⁻¹"}, {"measurement": "kcat/Km", "setting": "purified protein [9]", "result": "3.52e+06", "unit": "M⁻¹ s⁻¹"}, {"measurement": "Km", "setting": "purified protein [10]", "result": "521 ± 9.1", "unit": "µM"}, {"measurement": "kcat", "setting": "purified protein [10]", "result": "9 ± 0.3", "unit": "s⁻¹"}, {"measurement": "kcat/Km", "setting": "purified protein [10]", "result": 17300, "unit": "M⁻¹ s⁻¹"}, {"measurement": "Km", "setting": "purified protein [11]", "result": "124 ± 3.9", "unit": "µM"}, {"measurement": "kcat", "setting": "purified protein [11]", "result": "35 ± 0.9", "unit": "s⁻¹"}, {"measurement": "kcat/Km", "setting": "purified protein [11]", "result": 282000, "unit": "M⁻¹ s⁻¹"}, {"measurement": "Km", "setting": "purified protein [12]", "result": "497 ± 8.2", "unit": "µM"}, {"measurement": "kcat", "setting": "purified protein [12]", "result": "11 ± 1.1", "unit": "s⁻¹"}, {"measurement": "kcat/Km", "setting": "purified protein [12]", "result": 22100, "unit": "M⁻¹ s⁻¹"}]}]}
